We go through 5 substances from article PMC4557296.

As a reminder, the kon is a measure of how fast the partners come together.

The target in assay [1] is H3K9me3 (75%) chromatin array (12 nucleosomes) (human) (UniProt P68431). The assay can be described thus: smTIRFM (single-molecule total internal reflection fluorescence microscopy); chromatin arrays or mononucleosomes immobilised by biotin-neutravidin on PEG-passivated coverslips; 1 nM Atto532-labelled HP1α or 0.5 nM HP1αcdm in 50 mM HEPES, 130 mM KCl, 10% glycerol, 2 mM trolox, 0.005% tween-20, glucose and oxygen removal system; dwell-time histograms; apparent KD for a nucleosome in an array, calculated from the fast phase.

Assay [2] concerns the target H3K9me3 (25%) chromatin array (12 nucleosomes) (human) (UniProt P68431). The assay is described as above.
Assay [3] concerns the target H3K9me3 (50%) chromatin array (12 nucleosomes) (human) (UniProt P68431). The description is as above.
The target of assay [4] is H3K9me3 (100%) chromatin array (12 nucleosomes) (human) (UniProt P68431). The description is as above.
For assay [5], the target named is H3K9me0 (unmodified) chromatin array (12 nucleosomes) (human) (UniProt P68431). The description is as above.
In assay [6] the target is H3K9me3 mononucleosome (human) (UniProt P68431). The description is as above.
The target in assay [7] is Atto532-labelled HP1α (human). Description: smTIRFM (fluorescence intensities of individual binding events); 1 nM Atto532-labelled HP1α on immobilised chromatin arrays; share of events with the intensity of a dimer.
The target of assay [8] is H3K9me3 (100%) chromatin array (12 nucleosomes) (human) (UniProt P68431). The assay can be described thus: smTIRFM (single-molecule total internal reflection fluorescence microscopy); chromatin arrays or mononucleosomes immobilised by biotin-neutravidin on PEG-passivated coverslips; 1 nM Atto532-labelled HP1α or 0.5 nM HP1αcdm in 50 mM HEPES, 130 mM KCl, 10% glycerol, 2 mM trolox, 0.005% tween-20, glucose and oxygen removal system; dwell-time histograms; apparent KD for a nucleosome in an array, calculated from the fast phase. This is another data set of the same source.

Assay [9] has the same target. Described as above. The source holds these as a separate data set.
For assay [10] the target is unchanged. Description: smTIRFM (single-molecule total internal reflection fluorescence microscopy); as a3, in the presence of 1 μM peptide P3.
For assay [11] the target is unchanged. The assay can be described thus: smTIRFM (single-molecule total internal reflection fluorescence microscopy); as a3, with 1000 nM unlabelled HP1α added to 1 nM Atto532-labelled HP1α.
The target of assay [12] is Atto532-labelled HP1α (human). The assay can be described thus: smTIRFM (fluorescence intensities of individual binding events); as a10, in the presence of 1 μM peptide P3.
In assay [13] the target is H3K9me3 (100%) chromatin array (12 nucleosomes) (human) (UniProt P68431). The assay can be described thus: smTIRFM (single-molecule total internal reflection fluorescence microscopy); as a3, with the mutated peptide P4 added (concentration not given).
Assay [14] has the same target. The assay can be described thus: smTIRFM (single-molecule total internal reflection fluorescence microscopy); as a3, with 250 nM unlabelled HP1α added to 1 nM Atto532-labelled HP1α.
For assay [15] the target is unchanged. The assay can be described thus: smTIRFM (single-molecule total internal reflection fluorescence microscopy); as a3, with 50 nM unlabelled HP1α added to 1 nM Atto532-labelled HP1α.
Assay [16] concerns the target Atto532-labelled HP1α (human). Description: MST; H3K9me3 1–14 peptide serially diluted (0.1–100 μM) and mixed 1:1 with a 300 nM stock of Atto532-labelled HP1α or HP1αcdm; 150 mM NaCl, 50 mM HEPES, 0.05% Tween, 1 mM DTT, pH 7.5; quadratic binding equation.
Assay [17] deals with HP1αcdm (covalently dimerized HP1α, Atto532-labelled) (human) (UniProt P45973). Described as above.
The target in assay [18] is HP1α (I163E) (human) (UniProt P45973). The description is as above.
Assay [19] addresses H3K9me3 (100%) chromatin array (12 nucleosomes) (human) (UniProt P68431). Description: smTIRFM (single-molecule total internal reflection fluorescence microscopy); chromatin arrays or mononucleosomes immobilised by biotin-neutravidin on PEG-passivated coverslips; 1 nM Atto532-labelled HP1α or 0.5 nM HP1αcdm in 50 mM HEPES, 130 mM KCl, 10% glycerol, 2 mM trolox, 0.005% tween-20, glucose and oxygen removal system; dwell-time histograms; apparent KD for a nucleosome in an array, calculated from the fast phase. This is another data set of the same source.

HP1α (W40A), sequence (P45973 whole entry, stated change not applied): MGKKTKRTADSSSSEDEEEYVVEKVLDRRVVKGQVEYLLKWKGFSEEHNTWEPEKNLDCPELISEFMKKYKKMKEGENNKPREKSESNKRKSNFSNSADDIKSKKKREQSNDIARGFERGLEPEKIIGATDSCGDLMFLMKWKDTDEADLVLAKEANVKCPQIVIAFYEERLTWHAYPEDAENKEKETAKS

As to Atto532-labelled HP1α (natural protein), the Kd was 3.23 µM in [1]; 6.06 µM in [2]; 3.4 µM in [3]; 1.16 µM in assay [4]; 0.38 µM in assay [10]; 3.11 µM in assay [11]. The Kd in [13] turned out to be 0.84 µM; in assay [14], 3.72 µM; in [15], 1.48 µM. The kon was 1.63e+06 M⁻¹ s⁻¹ in [1]; 1.1e+06 M⁻¹ s⁻¹ in assay [2]; 1.73e+06 M⁻¹ s⁻¹ in assay [3]; 3.64e+06 M⁻¹ s⁻¹ in assay [4]; 3.58e+06 M⁻¹ s⁻¹ in assay [9]; 7.94e+06 M⁻¹ s⁻¹ in assay [10]. In addition, the kon was 2.92e+06 M⁻¹ s⁻¹ in assay [11], 4.25e+06 M⁻¹ s⁻¹ in assay [13], 2.07e+06 M⁻¹ s⁻¹ in assay [14] and 3.55e+06 M⁻¹ s⁻¹ in assay [15]. The λon (apparent association time constant) in assay [1] is 51 s; in [2] it was 75.8 s; in [3], 48.2 s; in [4], 22.9 s; in assay [10], 10.5 s; in [11] it was 29.3 s. For the same substance, the λon (apparent association time constant) in [13] was determined as 19.6 s; in assay [14], 43.3 s; in [15], 23.8 s. Moreover, the τoff,1 (fast phase of dissociation) was 0.19 s in assay [1]; 0.15 s in [2]; 0.17 s in assay [3]; 0.25 s in assay [4]; 0.08 s in assay [5]; 0.13 s in [6]. For the same substance, the τoff,1 (fast phase of dissociation) was 0.33 s in [10]; 0.11 s in assay [11]; 0.28 s in assay [13]; 0.13 s in assay [14]; 0.19 s in assay [15]. The τoff,2 (slow phase of dissociation) in [1] was 4.03 s; in assay [2] it was 4.57 s; in assay [3] it was 4.09 s; in assay [4], 2.26 s; in [5], 3.7 s; in [6] it was 1.18 s. Besides, the τoff,2 (slow phase of dissociation) in [8] is 2.3 s; in assay [10], 4.8 s; in assay [11], 2.75 s; in assay [13], 4.45 s; in [14] it was 3.93 s; in [15], 3.97 s. Also, the percent of binding events attributed to dimeric protein in [7] came out at 17%. Further, the percent dimeric HP1α in [12] amounted to 42%.

“H3K9me3 1–14 peptide (from UniProt P68431 2-15)”: the Kd in assay [16] came out at 5.36 µM; in assay [17], 12.5 µM; in assay [18], 9.4 µM.

Turning to “HP1α (I163E) (from UniProt P45973 1-191) (natural protein)”, in [4], the λon (apparent association time constant) is over 100 s, the τoff,1 (fast phase of dissociation) was 0.23 s and the τoff,2 (slow phase of dissociation) is 4.11 s.

“HP1α (W40A) (from UniProt P45973 1-191) (natural protein)”: in [4], the τoff,1 (fast phase of dissociation) is 0.1 s and the τoff,2 (slow phase of dissociation) is 0.56 s.

As to “HP1αcdm (covalently dimerized HP1α, Atto532-labelled) (from UniProt P45973 1-177)”, in assay [4], the Kd was 0.13 µM, the association rate constant (kon) is 2.24e+07 M⁻¹ s⁻¹, the λon (apparent association time constant) is 7.45 s and the τoff,1 (fast phase of dissociation) is 0.33 s. Moreover, the τoff,2 (slow phase of dissociation) in assay [4] was 3.4 s. In addition, the Kd in assay [19] is 0.14 µM.
